B1: RNA polymerase I-specific transcription initiation factor RRN11 (Saccharomyces cerevisiae), Q04712 (parent)
chain: MFEVPITLTNRKFAQRRKLKYQYINYISRRFDRISKKSTTTDSLPTPENSAAENNDEEEGQNSEAGTYRRSVLQQKKRRRERHWRSVVGEIYSTTESETDSQEEETEEGGEHDTGIDKEDSDEERKFWKKYEKPEKSFEIWRTVSSQNKQPINKQKMTYHNFKKIEKIPLRKMEIPLLHCTKENKLYFQSISRGLEPLKTSTSEVRNYRTRHIVTLTDLLHLNVSRHNWSLAYKIFATLIRIPGVQIKSLWGIGVEILDNLSNSSSGLDFLQWMCQIYSSKSRFVQNINYRSIVPPFQTGSRTHTAKFAITYLWSSLINCQKSMEPSSNIIDKPFDTENDLLQELIDKISEWVLTPPFMEDAEVWFIYASCHLLKADTLSRQFVNDNKNNDLIGLDRDIKINQVIKHIHYVRTFLKICLDKGGFAVPSRLIENQLKSFESRLYGEAQDIQERDVANVYDSIDNSSVENSFGDVYETNAEFLDTQLMDLSPEDNGLDEMHYSDEDSSE
partner: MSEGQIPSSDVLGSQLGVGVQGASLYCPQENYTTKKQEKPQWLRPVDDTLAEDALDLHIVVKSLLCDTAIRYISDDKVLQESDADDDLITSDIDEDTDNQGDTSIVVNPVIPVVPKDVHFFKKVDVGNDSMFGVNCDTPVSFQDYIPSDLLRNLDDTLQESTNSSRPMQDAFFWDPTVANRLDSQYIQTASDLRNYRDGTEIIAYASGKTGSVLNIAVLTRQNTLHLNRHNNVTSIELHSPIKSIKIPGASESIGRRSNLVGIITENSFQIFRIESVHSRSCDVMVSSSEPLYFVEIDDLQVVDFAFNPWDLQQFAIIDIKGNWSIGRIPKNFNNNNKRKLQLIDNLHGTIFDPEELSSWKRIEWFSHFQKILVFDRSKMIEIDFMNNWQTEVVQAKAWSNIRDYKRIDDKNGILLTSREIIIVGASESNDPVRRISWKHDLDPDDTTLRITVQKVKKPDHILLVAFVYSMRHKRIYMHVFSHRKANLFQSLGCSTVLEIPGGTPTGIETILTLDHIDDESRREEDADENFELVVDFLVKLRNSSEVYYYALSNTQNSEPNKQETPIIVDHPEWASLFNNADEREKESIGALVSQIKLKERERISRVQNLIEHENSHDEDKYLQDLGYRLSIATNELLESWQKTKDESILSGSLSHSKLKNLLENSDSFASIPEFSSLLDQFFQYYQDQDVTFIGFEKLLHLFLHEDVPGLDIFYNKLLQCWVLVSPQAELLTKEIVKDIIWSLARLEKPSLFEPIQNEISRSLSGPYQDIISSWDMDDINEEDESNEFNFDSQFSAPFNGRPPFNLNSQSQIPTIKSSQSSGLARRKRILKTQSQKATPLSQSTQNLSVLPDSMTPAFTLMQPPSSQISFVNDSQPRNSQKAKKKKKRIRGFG
B2: RNA polymerase I-specific transcription initiation factor RRN6 (Saccharomyces cerevisiae), P32786 (parent)
chain: B1 partner
partner: B1 chain

In one experiment the parent is B1. Particulars: with rrn6_yeast RRN6, P32786.
Consider MFEVPITLTNRKFAQRRKLKYQYINYISRRFDRISKKSTTTDSLPTPENSAAENNDEEEGQNSEAGTYRRSVLQQKKRRRERHWRSVVGEIYSTTESETDSQEEETEEGGEHDTGIDKEDSDEERKFWKKYEKPEKSFEIWRTVSSQNKQPINKQKMTYHNFKKIEKIPLRKMEIPLLHCTKENKLYFQSISRGLEPLKTSTSEVRNYRTRHIVTLTDLLHLNVSRHNWSLAYKIFATLIRIPGVQIKSLWGIGVEILDNLSNSSSGLDFLQWMCQIYSSKSRFVQNINYRSIVPPFQTGSRTHTAKFAITYLWSSLINCQKSMEPSSNIIDKPFDTENDLLQELIDKISEWVLTPPFMEDAEVWFIYASCHLLKADTLSRQFVNDNKNNDLIGLDRDIKINQVIKHIHYVRTFLKICLDKGGFAVPSRLIENQLKSFESRLYGEAQDIQERDVANVYDSIDNSSVENSFGDVYETNAEFADTQLMDASPEDNGADEMHYSDEDSSE [L481A;L488A;L495A], for which the “effect of a mutation on the interaction” value is recorded as “decreasing interaction”.

Variants of B2 are the subject of a further experiment. Particulars: with rrn11_yeast RRN11, Q04712.
In the case of L50A;L57A;L64A, the “effect of a mutation on the interaction” value is “decreasing interaction”.
